According to paper PMC5784920, “Inhibition of α-glucosidase, α-amylase, and aldose reductase by potato polyphenolic compounds” (PLoS ONE, 2018):

How the values were obtained:
[1] = test system: O=C[C@H](O)CO; test: purified protein; settings: NADPH cofactor; no inhibitor; varied substrate taken as glyceraldehyde (D/L not told)
[2] = test system: T1, α-glucosidase; test: p-nitrophenol release at […] nm, Lineweaver-Burk; type: biochemical; settings: pH 6.5 phosphate; no inhibitor
T1 construct: gene MAL12; introduction speaks of intestinal enzyme

Km [2] [mM] | Compound | Km [1] [mM]
– | aldose reductase (AR) (Homo sapiens) | 3.03
4.44 | O=[N+]([O-])c1ccc(O[C@H]2O[C@H](CO)[C@@H](O)[C@H](O)[C@H]2O)cc1 [PNPG] | –
